Measurements reported in paper PMC11989107, “Biochemical and Structural Characterization of a Highly Glucose-Tolerant β-Glucosidase from the Termite Reticulitermes perilucifugus” (International Journal of Molecular Sciences, 2025).

Tested on: O=[N+]([O-])c1ccc(O[C@@H]2O[C@H](CO)[C@@H](O)[C@H](O)[C@H]2O)cc1
Test: purified protein
Details: 37 °C, 20 mM phosphate buffer pH 7.0, 1-20 mM pNPG

Sequence of RpBgl8 (Reticulitermes perilucifugus) (chain, as listed by the source): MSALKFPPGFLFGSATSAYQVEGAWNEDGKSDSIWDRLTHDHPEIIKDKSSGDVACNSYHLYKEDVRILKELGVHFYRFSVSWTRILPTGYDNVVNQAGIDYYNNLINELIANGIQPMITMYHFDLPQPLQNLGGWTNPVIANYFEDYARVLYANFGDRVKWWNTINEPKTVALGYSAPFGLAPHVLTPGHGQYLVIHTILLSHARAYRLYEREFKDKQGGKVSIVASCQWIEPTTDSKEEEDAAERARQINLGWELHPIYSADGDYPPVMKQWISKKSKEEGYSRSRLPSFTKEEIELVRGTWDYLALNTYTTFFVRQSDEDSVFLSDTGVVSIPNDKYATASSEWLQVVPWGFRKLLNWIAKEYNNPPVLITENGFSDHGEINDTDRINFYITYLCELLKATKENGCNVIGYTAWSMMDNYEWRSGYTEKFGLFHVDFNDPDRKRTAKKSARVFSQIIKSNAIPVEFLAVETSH

For RpBgl8 (Reticulitermes perilucifugus), the Km was 5.4 mM and the kcat was 0.17 s⁻¹.
